Results as given in publication PMC11904782, “Armadillo domain of ARID1A directly interacts with DNA-PKcs to couple chromatin remodeling with nonhomologous end joining (NHEJ) pathway” (Nucleic Acids Research, 2025).

B1: His–ARID1A–ARM domain (1914–2285 aa) (domain or fragment, UniProt O14497 1914-2285, looked up)
chain: MLSTRSSTLTEDGAKSSEAIKESSKFPFGISPAQSHRNIKILEDEPHSKDETPLCTLLDWQDSLAKRCVCVSNTIRSLSFVPGNDFEMSKHPGLLLILGKLILLHHKHPERKQAPLTYEKEEEQDQGVSCNKVEWWWDCLEMLRENTLVTLANISGQLDLSPYPESICLPVLDGLLHWAVCPSAEAQDPFSTLGPNAVLSPQRLVLETLSKLSIQDNNVDLILATPPFSRLEKLYSTMVRFLSDRKNPVCREMAVVLLANLAQGDSLAARAIAVQKGSIGNLLGFLEDSLAATQFQQSQASLLHMQNPPFEPTSVDMMRRAARALLALAKVDENHSEFTLYESRLLDISVSPLMNSLVSQVICDVLFLIGQS
notes: ARID1A residues 1914-2285 (ARM domain); Limits are printed for the BLI ligand; also called His-tagged ARM domain of ARID1A

What was measured:
Conditions in all cases: both partners purified
[1] = target: B1; assay: far-Western, overlay or dot blot; GST-fusion proteins separated by SDS–PAGE, transferred to PVDF, renatured through falling guanidine–HCl, incubated with His–ARID1A–ARM overnight at 4°C, probed with anti-His-tag antibody
GST-DNTT: aa 1–509 = target: T1, GST-DNTT: aa 1–509 (UniProt P04053 1-509); assay: as above
T1 construct: DNA nucleotidylexotransferase (DNTT) residues 1-509; also called DNA nucleotidylexotransferase

[2] = target: B1; assay: BLI; Octet Red K2; His–ARID1A–ARM domain immobilised on NTA biosensors; GST recombinant proteins as analytes in serial dilutions

T1 sequence (P04053 whole entry, the tested form may be a part): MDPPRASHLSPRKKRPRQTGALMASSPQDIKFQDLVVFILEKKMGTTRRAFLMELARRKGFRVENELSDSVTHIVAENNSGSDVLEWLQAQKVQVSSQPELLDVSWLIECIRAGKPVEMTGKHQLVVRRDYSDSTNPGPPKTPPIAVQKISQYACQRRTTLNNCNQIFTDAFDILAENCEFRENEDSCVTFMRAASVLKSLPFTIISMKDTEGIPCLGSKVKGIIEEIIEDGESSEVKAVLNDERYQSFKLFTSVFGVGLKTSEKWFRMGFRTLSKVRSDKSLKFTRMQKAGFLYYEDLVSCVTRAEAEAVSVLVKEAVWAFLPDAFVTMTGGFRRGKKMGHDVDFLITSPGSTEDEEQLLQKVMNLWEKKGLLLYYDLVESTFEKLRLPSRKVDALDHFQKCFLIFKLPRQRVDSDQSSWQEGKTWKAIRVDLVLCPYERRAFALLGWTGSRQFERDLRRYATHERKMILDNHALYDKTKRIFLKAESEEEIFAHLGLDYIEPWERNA

| Binder | binding result [1] | binding result [2] | other results |
| --- | --- | --- | --- |
| GST-EZH2-C: aa 598–746 (domain or fragment, enhancer of zeste 2 PRC2 subunit 2 (EZH2) residues 598-746) not shown | binds |  |  |
| B1 |  |  | binding result (GST-DNTT: aa 1–509): binds |
| AALGDPKAPGLGAFRRKFIQTFGKEFDKHFGKGGSKLLRMKLSDFN (domain or fragment, UniProt P78527 3615-3660, looked up, DNA-PKcs residues 3615-3660, printed as 45 amino acids) [GST–DNA–PKcs ARID1A-binding region (3615–3660 aa), wild type] | binds |  |  |
| wild-type GST–DNA–PKcs (3552–3691 aa) (domain or fragment, UniProt P78527 3552-3691, looked up, DNA-PKcs residues 3552-3691; also called recombinant wild-type DNA-PKcs; longer amino acid region (3552–3691 aa)) KEFVARIKSKLDQGGVIQDFINALDQLSNPELLFKDWSNDVRAELAKTPVNKKNIEKMYERMYAALGDPKAPGLGAFRRKFIQTFGKEFDKHFGKGGSKLLRMKLSDFNDITNMLLLKMNKDSKPPGNLKECSPWMSDFK |  | binds |  |
| GST-POLB (7–53 aa) (domain or fragment, DNA polymerase beta residues 7-53; Printed as GAT-POLB in the methods; also called GAT-POLB (7–53 aa); recombinant POLB) not shown |  | binds |  |
